Source: the supplement of paper PMC6757056
± gives the standard deviation of the averaged measurements.

B1: library; a variant is named by its letters at N, in order (parent)
chain: GCUGUCACCGAGAAACUGUGAAGUAUAUCUUAAACCUGGGCACUUAAAAGAUAUAUGGAGUUAGUAGUGCAACCUGCUCGGUCUGAUGAGUCCNNNNNNGGACGAAACAGC

Key:
[1] = variants of: B1; experiment: FACS-Seq fitted mean relative fluorescence mCherry/BFP without ligand (log10 relative fluorescence); HEK293T; ligand: cyclic di-GMP (c-di-GMP-II aptamer); higher = higher reporter protein expression; conditions: ligand present: no
Experimental: (§1)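 Hammerhead (sTRSV) ribozyme switch libraries with a ligand aptamer grafted on stem I and a randomized N4-6 loop II, cloned into the 3' UTR of mCherry and transiently transfected into HEK293T cells; RNA-Seq 72 h post transfection with ligand added 1 h before transfection; RNA read count / plasmid DNA read count normalized to the non-cleaving sTRSVctl (x100), log10; sequences with >100 DNA reads. FACS-Seq: lentiviral library sorted into 6 bins after 48 h ligand, log-normal fit mean of mCherry/BFP scaled to controls. Printed sequences are partial switch sequences.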

[2] = variants of: B1; experiment: normalized RNA/DNA level without ligand (relative to sTRSVctl = 100) (log10 (% of sTRSVctl)); HEK293T; ligand: cyclic di-GMP (c-di-GMP-II aptamer); higher = less ribozyme self-cleavage, higher mRNA level; conditions: reporter: mCherry (pCS4076), ligand present: no
Experimental: as §1

[3] = variants of: B1; experiment: FACS-Seq fitted mean relative fluorescence mCherry/BFP with ligand (log10 relative fluorescence); HEK293T; ligand: cyclic di-GMP (c-di-GMP-II aptamer); ligand concentration (+) FACS-Seq: 1 mM; higher = higher reporter protein expression; conditions: ligand present: yes
Experimental: as §1

[4] = variants of: B1; experiment: normalized RNA/DNA level with ligand (relative to sTRSVctl = 100) (log10 (% of sTRSVctl)); HEK293T; ligand: cyclic di-GMP (c-di-GMP-II aptamer); ligand concentration (+) RNA-Seq: 1 mM; higher = less ribozyme self-cleavage, higher mRNA level; conditions: reporter: mCherry (pCS4076), ligand present: yes
Experimental: as §1

Variant | FACS-Seq fitted mean (log10) [1] | normalized RNA/DNA level without ligand (log10) [2] | FACS-Seq fitted mean (log10) [3] | normalized RNA/DNA level with ligand (log10) [4]
AAAAGG | -0.489 ± 0.057 | 1.49 ± 0.12 | -0.254 ± 0.005 | 1.66 ± 0.093
AAAAGA | -0.494 ± 0.013 | 1.36 ± 0.073 | -0.116 ± 0.009 | 1.56 ± 0.14
AAAAGC | 0.0679 ± 0.01 | 1.58 ± 0.045 | 0.227 ± 0.045 | 1.73 ± 0.089
GAAAUG | -0.4346 ± 0.0037 | 1.55 ± 0.067 | -0.122 ± 0.1 | 1.71 ± 0.11
GAAAUU | -0.0957 ± 0.14 | 1.5921 ± 0.00088 | 0.215 ± 0.096 | 1.78 ± 0.11
GAAAUA | 0.098 ± 0.25 | 1.47 ± 0.079 | 0.291 ± 0.031 | 1.65 ± 0.12
UAAAGA | -0.0343 ± 0.1 | 1.6 ± 0.047 | 0.167 ± 0.024 | 1.73 ± 0.12
AAAAUG | -0.0352 ± 0.079 | 1.5 ± 0.05 | 0.319 ± 0.046 | 1.7 ± 0.12
AAAAUC | 0.0212 ± 0.1 | 1.62 ± 0.028 | 0.2003 ± 0.0016 | 1.76 ± 0.06
AAAAUU | -0.708 ± 0.058 | 1.62 ± 0.034 | -0.4137 ± 0.00058 | 1.76 ± 0.085
GAACGU | -0.419 ± 0.027 | 1.54 ± 0.095 | -0.133 ± 0.0044 | 1.69 ± 0.092
GAACGA | -0.276 ± 0.045 | 1.46 ± 0.1 | -0.0281 ± 0.066 | 1.64 ± 0.072
AAACAC | -0.457 ± 0.011 | 1.6 ± 0.035 | -0.124 ± 0.07 | 1.75 ± 0.082
AAACAU | -0.286 ± 0.077 | 1.6 ± 0.019 | -0.0737 ± 0.18 | 1.77 ± 0.11
AAACAG | -0.103 ± 0.1 | 1.55 ± 0.053 | 0.169 ± 0.015 | 1.73 ± 0.095
AAACAA | -0.921 ± 0.12 | 1.44 ± 0.051 | -0.77 ± 0.014 | 1.62 ± 0.1
